Publication PMC8685902, “Perception of structurally distinct effectors by the integrated WRKY domain of a plant immune receptor”

Legend:
[1] = target: RRS1^WRKY, integrated WRKY domain of RRS1-R (residues 1194 to 1273) (Arabidopsis); assay: ITC; AvrRps4^C (wild type or mutant) titrated into a solution of the WRKY domain; three independent experiments fitted globally to a 1:1 binding model (AFFINImeter)
[2] = target: AvrRps4^C, in planta processed C-terminal fragment of AvrRps4 (residues 134 to 221) (Pseudomonas syringae pv. pisi); assay: SEC; analytical gel filtration on a Superdex 75 10/300 column; proteins alone and after incubation at an equimolar (1:1) ratio
[3] = target: RRS1^WRKY, integrated WRKY domain of RRS1-R (residues 1194 to 1273) (Arabidopsis); assay: as above
[4] = target: AtWRKY41 (Thr125 to Ile204), DNA-binding domain (Arabidopsis) (UniProt Q8H0Y8); assay: ITC; AvrRps4^C (wild type or mutant) titrated into a solution of the WRKY domain; three independent experiments fitted globally to a 1:1 binding model (AFFINImeter)
[5] = target: RRS1B^WRKY, integrated WRKY domain of RRS1B (Asn1164 to Thr1241) (Arabidopsis) (UniProt Q9FL92); assay: as above
Chain of RRS1B^WRKY, integrated WRKY domain of RRS1B (Asn1164 to Thr1241) (Arabidopsis) (Q9FL92 1164-1241): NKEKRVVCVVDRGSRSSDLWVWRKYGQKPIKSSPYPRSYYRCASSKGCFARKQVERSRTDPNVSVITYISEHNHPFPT

[6] = target: AtWRKY41 DNA-binding domain (Thr125-Ile204) (Arabidopsis) (UniProt Q8H0Y8); assay: ITC; MicroCal PEAQ-ITC; cell 20 uM RRS1WRKY, AtWRKY41 or RRS1BWRKY, syringe 200 uM AvrRps4C wild type or mutant; 25 C; buffer A4 (20 mM HEPES pH 7.5, 150 mM NaCl); triplicate, global fit to a 1:1 binding model (AFFINImeter)
[7] = target: RRS1B^WRKY, integrated WRKY domain of RRS1B (Asn1164-Thr1241) (Arabidopsis) (UniProt Q9FL92); assay: as above
Chain of RRS1B^WRKY, integrated WRKY domain of RRS1B (Asn1164-Thr1241) (Arabidopsis) (Q9FL92 1164-1241): as above

[8] = target: T1, RRS1 WRKY domain (RRS1-R) (UniProt C4B7M5 1194-1273); assay: EMSA; no effector; EMSA: 10 mM Tris-Cl pH 7.5, 50 mM KCl, 1 mM DTT, 5% glycerol; SPR: 10 mM HEPES pH 7.5, 250 mM NaCl, 0.005% Tween-20, 25 C (Biacore 8K, ReDCaT); conditions: protein: recombinant; tags: 6xHis-MBP (pOPIN-M), cleaved with 3C; label: 5' Cy3 on forward strand; blunt
T1 sequence: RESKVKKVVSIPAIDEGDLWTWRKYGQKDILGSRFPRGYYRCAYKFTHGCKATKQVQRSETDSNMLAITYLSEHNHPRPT

[9] = target: T2, AtWRKY41 DNA-binding domain (UniProt Q8H0Y8 125-204); assay: as above; conditions: protein: recombinant; tags: 6xHis-MBP (pOPIN-M), cleaved with 3C; label: 5' Cy3 on forward strand; blunt
T2 sequence: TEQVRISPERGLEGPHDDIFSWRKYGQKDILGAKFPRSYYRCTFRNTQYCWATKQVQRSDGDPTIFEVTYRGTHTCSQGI

For AvrRps4^C Q194A (domain or fragment), the fold reduction in affinity against wild-type AvrRps4^C [1] was 7 fold.

In the case of “AvrRps4^C, in planta processed C-terminal fragment of AvrRps4 (residues 134 to 221) (domain or fragment)”, the stoichiometry N [2] is reported as 2, the stoichiometry N [3] is reported as 1 and the Kd [4] is reported as 20 nM. The fold weaker binding than to RRS1^WRKY [5] was 3 fold, the Kd [1] was 103 nM and the stoichiometry N [1] was 1.

With “AvrRps4^C, the in planta processed C-terminal fragment of AvrRps4 (residues 134-221) (domain or fragment)” the stoichiometry N [6] was 1.1 and the stoichiometry N [7] was 0.8.

B1: Cy3 W-box DNA (dsDNA)
DNA 1: CGCCTTTGACCAGCGC
DNA 2: GCGCTGGTCAAAGGCG
B1: binds [8]; binds [9].
